# From IntAct's records for PubMed 11230129
# B1: CBL-interacting serine/threonine-protein kinase 1 (Arabidopsis thaliana (Mouse-ear cress)), Q8RWC9 (parent)
# chain: MVRRQEEEKKAEKGMRLGKYELGRTLGEGNFGKVKFAKDTVSGHSFAVKIIDKSRIADLNFSLQIKREIRTLKMLKHPHIVRLHEVLASKTKINMVMELVTGGELFDRIVSNGKLTETDGRKMFQQLIDGISYCHSKGVFHRDLKLENVLLDAKGHIKITDFGLSALPQHFRDDGLLHTTCGSPNYVAPEVLANRGYDGAASDIWSCGVILYVILTGCLPFDDRNLAVLYQKICKGDPPIPRWLSPGARTMIKRMLDPNPVTRITVVGIKASEWFKLEYIPSIPDDDDEEEVDTDDDAFSIQELGSEEGKGSDSPTIINAFQLIGMSSFLDLSGFFEQENVSERRIRFTSNSSAKDLLEKIETAVTEMGFSVQKKHAKLRVKQEERNQKGQVGLSVTAEVFEIKPSLNVVELRKSYGDSCLYRQLYERLLKDVGTSSPEQEIVT
# Variants of: B1
# Settings: with cnbl2_arath CBL2, Q8LAS7
row,Variant,effect of a mutation on the interaction
1,L332D,disrupting interaction
2,P315A,decreasing interaction
3,I324D,decreasing interaction
4,A320P,disrupting interaction
5,F335P,disrupting interaction
6,S327L,decreasing interaction
